From patent US20260242478A1 (published 2026)

Key:
[1] = molecular target: T1, Anti-CD28 scFv (VH - linker 1 - VL) (biotinylated (site not stated)); assay: phage ELISA; biotinylated anti-CD28 scFv on neutravidin plate, clonal phage supernatant, anti-M13-HRP;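 also: before the phage were added, wells were pre-incubated with soluble CD28 protein in blocking buffer, or with blocking buffer alone, and were not washed in between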
T1 construct: Biotinylated anti-CD28 scFv captured on neutravidin coated plates in the panning ELISA
T1 sequence (scFv, as listed by the source): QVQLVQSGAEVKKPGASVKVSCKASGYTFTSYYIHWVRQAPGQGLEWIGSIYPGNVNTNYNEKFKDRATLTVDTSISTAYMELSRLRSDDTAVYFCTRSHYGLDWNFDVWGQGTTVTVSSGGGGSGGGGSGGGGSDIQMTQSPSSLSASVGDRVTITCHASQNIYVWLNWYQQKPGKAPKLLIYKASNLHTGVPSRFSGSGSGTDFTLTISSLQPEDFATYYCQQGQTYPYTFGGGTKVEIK

[2] = molecular target: T1, Anti-CD28 scFv (VH - linker 1 - VL); assay: phage ELISA as above; wells pre-incubated with soluble CD28 as competitor;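 also: crude clonal phage supernatants tested, with bound phage detected by HRP-conjugated anti-M13 antibody, and reference wells given blocking buffer without CD28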
Description: (§1) Clonal phage were harvested as crude supernatants and screened via standard enzyme linked immunosorbent assays (ELISAs). […] Prior to the addition of clonal phage, wells were incubated with blocking buffer and CD28 soluble protein or blocking buffer alone. Without washing or aspirating, clonal phage supernatants were then added to the wells and incubated for a short time. Wells were then washed followed by detection of bound phage using a horse radish peroxidase conjugated anti-M13 antibody.

[3] = molecular target: T2, anti-CD28 scFv (VH - linker 1 - VL) (biotinylated (site not stated)); assay: phage ELISA; biotinylated anti-CD28 scFv on neutravidin plate, clonal phage supernatant, anti-M13-HRP;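 also: before the phage were added, wells were pre-incubated with soluble CD28 protein in blocking buffer, or with blocking buffer alone, and were not washed in between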
T2 sequence (scFv, as listed by the source): as above

[4] = molecular target: T2, anti-CD28 scFv (VH - linker 1 - VL); assay: phage ELISA as above; wells pre-incubated with soluble CD28 (competitor)
Description: as §1

[5] = molecular target: T3, anti-CD28 scFv (VH - linker 1 - VL) (biotinylated (site not stated)); assay: clonal phage ELISA; captured anti-CD28 scFv pre-incubated with soluble CD28 (competitor), anti-M13-HRP detection;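 also: crude clonal phage supernatants added to wells pretreated with soluble CD28 in blocking buffer, compared against wells given blocking buffer only, then bound phage measured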
T3 construct: Captured as biotinylated scFv on neutravidin coated plates in the clonal phage ELISA
T3 sequence (scFv, as listed by the source): as above

[6] = molecular target: T3, anti-CD28 scFv (VH - linker 1 - VL); assay: clonal phage ELISA; biotinylated anti-CD28 scFv on neutravidin plate, anti-M13-HRP detection;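 also: crude supernatants of phage clones were tested in wells pretreated with blocking buffer either alone or supplemented with soluble CD28 protein before phage addition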
Description: as §1

Row | Binder | CD28 scFv signal [1] | CD28 scFv signal in presence of CD28 [2] | CD28 scFv signal in presence of CD28 [5] | CD28 scFv signal [6] | further results
1 | MHWCPRDLWHVCFN (Clonal phage of the Peptide-9 library) [Phage-327] | 2.15 | 0.15 | – | – | –
2 | MDWCPRDLWYVCFA (Clonal phage of the Peptide-9 library) [Phage-321] | 2.22 | 0.138 | – | – | –
3 | MDWCPRSLWNYCFN (Clonal phage of the Peptide-9 library) [Phage-313] | 2.35 | 0.209 | – | – | –
4 | MDWCPRSLWNYCFA (Clonal phage of the Peptide-9 library) [Phage-316] | 2.32 | 0.198 | – | – | –
5 | MDWCPKPLWHVCFA [Phage-337 clonal phage peptide MDWCPKPLWHVCFA] | – | – | – | – | CD28 scFv signal [3]: 2.02; CD28 scFv signal in presence of CD28 [4]: 0.152
6 | MDWCPRALWNVCFA (Clonal phage of the Peptide-9 library; also called the position column gives N at position 14)) [Phage-329] | 2.14 | 0.249 | – | – | –
7 | MDWCPRAMWHECFY (tested as crude clonal phage supernatant) [Phage-207] | – | – | 0.129 | 1.92 | –
8 | MDWCPRDMWFECFA (tested as crude clonal phage supernatant) [Phage-210] | – | – | 0.143 | 1.31 | –
9 | MDWCPRHLWYECFS (Clonal phage of the Peptide-9 library) [Phage-324] | 2.17 | 0.163 | – | – | –
10 | MDWCPRFLWDYCFA (Clonal phage of the Peptide-9 library) [Phage-335] | 2.03 | 0.207 | – | – | –
11 | MDWCPRYLWDECFS (Clonal phage of the Peptide-9 library) [Phage-334] | 2.06 | 0.164 | – | – | –
12 | MDWCPRHLWHECFT (Clonal phage of the Peptide-9 library) [Phage-317] | 2.3 | 0.32 | – | – | –
13 | MDWCPAYLWDECFA (Clonal phage of the Peptide-9 library) [Phage-325] | 2.17 | 0.163 | – | – | –
14 | MFWCPMDMWDQCFN (tested as crude clonal phage supernatant) [Phage-202] | – | – | 0.207 | 2.26 | –
15 | MDWCPRHLWDECFY (Clonal phage of the Peptide-9 library) [Phage-331] | 2.13 | 0.146 | – | – | –
16 | MDWCPTDMWIVCFA (tested as crude clonal phage supernatant) [Phage-208] | – | – | 0.172 | 1.5 | –
17 | NYWCPSSMWNRCLH (tested as crude clonal phage supernatant) [Phage-219] | – | – | 0.088 | 0.158 | –
18 | MDWCPTYLWHVCFS (Clonal phage of the Peptide-9 library) [Phage-315] | 2.32 | 0.16 | – | – | –
19 | MDWCPRHLWIECFN (Clonal phage of the Peptide-9 library) [Phage-322] | 2.21 | 0.376 | – | – | –
20 | MDWCPRDQWHNCFN (tested as crude clonal phage supernatant) [Phage-222] | – | – | 0.078 | 0.2 | –
21 | MDWCPRAMWDKCFF (tested as crude clonal phage supernatant) [Phage-212] | – | – | 0.094 | 0.985 | –
22 | MDWCPTYMWSECFN (tested as crude clonal phage supernatant) [Phage-214] | – | – | 0.107 | 0.754 | –
23 | MDWCPIHLWNECFN (Clonal phage of the Peptide-9 library) [Phage-314] | 2.35 | 0.157 | – | – | –
24 | MDWCPTYLWNVCFA (Clonal phage of the Peptide-9 library) [Phage-323] | 2.21 | 0.132 | – | – | –
25 | MDWCPRFLWDVCFN (Clonal phage of the Peptide-9 library; also called the position column gives F at position 7)) [Phage-330] | 2.14 | 0.309 | – | – | –
26 | MDWCPTYLWNECFN (Clonal phage of the Peptide-9 library) [Phage-320] | 2.24 | 0.606 | – | – | –

Row | Binder | CD28 scFv signal [1] | CD28 scFv signal in presence of CD28 [2] | CD28 scFv signal in presence of CD28 [5] | CD28 scFv signal [6] | further results
27 | MDWCPTDMWHHCFL (tested as crude clonal phage supernatant) [Phage-205] | – | – | 0.126 | 2.2 | –
28 | MSWCPRDMWFYCYA (tested as crude clonal phage supernatant) [Phage-203] | – | – | 0.174 | 2.25 | –
29 | IHWCPINMWDKCYN (tested as crude clonal phage supernatant) [Phage-206] | – | – | 0.203 | 2.08 | –
30 | MDWCPMNMWYQCFN (tested as crude clonal phage supernatant) [Phage-216] | – | – | 0.137 | 0.639 | –
31 | MFWCPFDMWHFCFN (tested as crude clonal phage supernatant) [Phage-200] | – | – | 0.469 | 2.29 | –
32 | MDWCPMFLWDECFN (Clonal phage of the Peptide-9 library; also called the position column gives F at position 7)) [Phage-318] | 2.29 | 0.203 | – | – | –
33 | FDFCPTTMWTYCQH (tested as crude clonal phage supernatant) [Phage-220] | – | – | 0.081 | 0.086 | –
34 | MFWCPITLWNECFN (Clonal phage of the Peptide-9 library) [Phage-326] | 2.15 | 0.143 | – | – | –
35 | MDWCPRHMWYECFF (tested as crude clonal phage supernatant) [Phage-197] | – | – | 0.298 | 2.34 | –
36 | MDWCPRALWDHCFN (Clonal phage of the Peptide-9 library) [Phage-328] | 2.15 | 0.293 | – | – | –
37 | MDWCPTDLWHECFA (Clonal phage of the Peptide-9 library) [Phage-333] | 2.07 | 0.154 | – | – | –
38 | MDWCPRHMWNVCFS (tested as crude clonal phage supernatant) [Phage-204] | – | – | 0.13 | 2.25 | –
39 | MNWCPSYMWDQCFA (tested as crude clonal phage supernatant) [Phage-213] | – | – | 0.105 | 0.854 | –
40 | MDWCPRDLWYQCFN (Clonal phage of the Peptide-9 library) [Phage-311] | 2.35 | 0.609 | – | – | –
41 | MDWCPRDLWNWCFN [Phage-336 clonal phage peptide MDWCPRDLWNWCFN] | – | – | – | – | CD28 scFv signal [3]: 2.03; CD28 scFv signal in presence of CD28 [4]: 0.39
42 | TTWCPTSMWLHCFD (tested as crude clonal phage supernatant) [Phage-221] | – | – | 0.072 | 0.074 | –
43 | MDWCPWDMWDKCFN (tested as crude clonal phage supernatant) [Phage-217] | – | – | 0.108 | 0.586 | –
44 | TFGCPTTMWNRCFA (tested as crude clonal phage supernatant) [Phage-218] | – | – | 0.068 | 0.181 | –
45 | MDWCPRDLWDECFN (Clonal phage of the Peptide-9 library) [Phage-310] | 2.37 | 0.248 | – | – | –
46 | MDWCPRDMWDQCFD (tested as crude clonal phage supernatant) [Phage-201] | – | – | 0.119 | 2.29 | –
47 | MDWCPRNMWAQCFA (tested as crude clonal phage supernatant) [Phage-199] | – | – | 0.209 | 2.31 | –
48 | MDWCPRYMWNECFN (tested as crude clonal phage supernatant) [Phage-215] | – | – | 0.128 | 0.687 | –
49 | IDWCPRALWDACLA (Clonal phage of the Peptide-9 library) [Phage-332] | 2.1 | 0.164 | – | – | –
50 | IDWCPQDMWFYCFN (tested as crude clonal phage supernatant) [Phage-209] | – | – | 0.16 | 1.42 | –
51 | MSWCPRDLWHLCFF (Clonal phage of the Peptide-9 library) [Phage-319] | 2.27 | 0.319 | – | – | –
52 | MDWCPRAMWNHCFN (tested as crude clonal phage supernatant) [Phage-198] | – | – | 0.426 | 2.33 | –
